What follows are binders tested against Circumsporozoite protein (CSP) (Plasmodium falciparum (isolate 3D7), UniProt Q7K740) (assay: AVEXIS screen signal:noise (double-corrected)).
Sequence of Circumsporozoite protein (CSP) (Q7K740 19-374): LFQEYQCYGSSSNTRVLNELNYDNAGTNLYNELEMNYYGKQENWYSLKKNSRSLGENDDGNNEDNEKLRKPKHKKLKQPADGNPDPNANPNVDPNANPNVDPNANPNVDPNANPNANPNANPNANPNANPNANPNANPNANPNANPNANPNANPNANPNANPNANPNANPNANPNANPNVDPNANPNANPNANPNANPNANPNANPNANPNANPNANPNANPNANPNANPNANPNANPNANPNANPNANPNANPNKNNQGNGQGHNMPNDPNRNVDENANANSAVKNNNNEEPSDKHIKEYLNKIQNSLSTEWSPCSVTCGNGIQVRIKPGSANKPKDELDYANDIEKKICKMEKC

Row | Binder | binding score
1 | ADP392 (protein, bait human Fc-tagged dimer) GLTRSCDSSGDGGPGTAPAPSHLPSSTASPSGPPAQDQDICPASEDESGQWKNFRLPDFVNPVHYDLHVKPLLEEDTYTGTVSISINLSAPTRYLWLHLRETRITRLPELKRPSGDQVQVRRCFEYKKQEYVVVEAEEELTPSSGDGLYLLTMEFAGWLNGSLVGFYRTTYTENGQVKSIVATDHEPTDARKSFPCFDEPNKKATYTISITHPKEYGALSNMPVAKEESVDDKWTRTTFEKSVPMSTYLVCFAVHQFDSVKRISNSGKPLTIYVQPEQKHTAEYAANITKSVFDYFEEYFAMNYSLPKLDKIAIPDFGTGAMENWGLITYRETNLLYDPKESASSNQQRVATVVAHELVHQWFGNIVTMDWWEDLWLNEGFASFFEFLGVNHAETDWQMRDQMLLEDVLPVQEDDSLMSSHPIIVTVTTPDEITSVFDGISYSKGSSILRMLEDWIKPENFQKGCQMYLEKYQFKNAKTSDFWAALEEASRLPVKEVMDTWTRQMGYPVLNVNGVKNITQKRFLLDPRANPSQPPSDLGYTWNIPVKWTEDNITSSVLFNRSEKEGITLNSSNPSGNAFLKINPDHIGFYRVNYEVATWDSIATALSLNHKTFSSADRASLIDDAFALARAQLLDYKVALNLTKYLKREENFLPWQRVISAVTYIISMFEDDKELYPMIEEYFQGQVKPIADSLGWNDAGDHVTKLLRSSVLGFACKMGDREALNNASSLFEQWLNGTVSLPVNLRLLVYRYGMQNSGNEISWNYTLEQYQKTSLAQEKEKLLYGLASVKNVTLLSRYLDLLKDTNLIKTQDVFTVIRYISYNSYGKNMAWNWIQLNWDYLVNRYTLNNRNLGRIVTIAEPFNTELQLWQMESFFAKYPQAGAGEKPREQVLETVKNNIEWLKQHRNTIREWFFNLLESG | 0.793
2 | ADP151 (protein, bait human Fc-tagged dimer) MALTLSVLICLGLSVGPRTCVQAGTLPKPTLWAEPASVIARGKPVTLWCQGPLETEEYRLDKEGLPWARKRQNPLEPGAKAKFHIPSTVYDSAGRYRCYYETPAGWSEPSDPLELVATGFYAEPTLLALPSPVVASGGNVTLQCDTLDGLLTFVLVEEEQKLPRTLYSQKLPKGPSQALFPVGPVTPSCRWRFRCYYYYRKNPQVWSNPSDLLEILVPGVSRKPSLLIPQGSVVARGGSLTLQCRSDVGYDIFVLYKEGEHDLVQGSGQQPQAGLSQANFTLGPVSRSHGGQYRCYGAHNLSPRWSAPSDPLDILIAGLIPDIPALSVQPGPKVASGENVTLLCQSWHQIDTFFLTKEGAAHPPLCLKSKYQSYRHQAEFSMSPVTSAQGGTYRCYSAIRSYPYLLSSPSYPQELVVSGPSGDPSLSPTGSTPTPGPEDQPLTPTGLDPQSGLG | 1.33
3 | ADP115 (protein, bait human Fc-tagged dimer) MARPGQRWLGKWLVAMVVWALCRLATPLAKNLEPVSWSSLNPKFLSGKGLVIYPKIGDKLDIICPRAEAGRPYEYYKLYLVRPEQAAACSTVLDPNVLVTCNRPEQEIRFTIKFQEFSPNYMGLEFKKHHDYYITSTSNGSLEGLENREGGVCRTRTMKIIMKVGQDPNAVTPEQLTTSRPSKEADNTVKMATQAPGSRGSLGDSDGKHETVNQEEKSGPGASGGSSGDPDGFFNSKVAL | 1.09
4 | ADP377 (protein, bait human Fc-tagged dimer) FSECNKCDEKKERGLPAGDVLEPVQKPHEGPGEMGKPVVIPKEDQEKMKEMFKINQFNLMASEMIALNRSLPDVRLEGCKTKVYPDNLPTTSVVIVFHNEAWSTLLRTVHSVINRSPRHMIEEIVLVDDASERDFLKRPLESYVKKLKVPVHVIRMEQRSGLIRARLKGAAVSKGQVITFLDAHCECTVGWLEPLLARIKHDRRTVVCPIIDVISDDTFEYMAGSDMTYGGFNWKLNFRWYPVPQREMDRRKGDRTLPVRTPTMAGGLFSIDRDYFQEIGTYDAGMDIWGGENLEISFRIWQCGGTLEIVTCSHVGHVFRKATPYTFPGGTGQIINKNNRRLAEVWMDEFKNFFYIISPGVTKVDYGDISSRVGLRHKLQCKPFSWYLENIYPDSQIPRHYFSLGEIRNVETNQCLDNMARKENEKVGIFNCHGMGGNQVFSYTANKEIRTDDLCLDVSKLNGPVTMLKCHHLKGNQLWEYDPVKLTLQHVNSNQCLDKATEEDSQVPSIRDCNGSRSQQWLLRNVTLPEIF | 0.747
5 | ADP342 (protein, bait human Fc-tagged dimer) MATQLPAYVAILLFYVSRASCQDTFTAAVYEHAAILPNATLTPVSREEALALMNRNLDILEGAITSAADQGAHIIVTPEDAIYGWNFNRDSLYPYLEDIPDPEVNWIPCNNRNRFGQTPVQERLSCLAKNNSIYVVANIGDKKPCDTSDPQCPPDGRYQYNTDVVFDSQGKLVARYHKQNLFMGENQFNVPKEPEIVTFNTTFGSFGIFTCFDILFHDPAVTLVKDFHVDTIVFPTAWMNVLPHLSAVEFHSAWAMGMRVNFLASNIHYPSKKMTGSGIYAPNSSRAFHYDMKTEEGKLLLSQLDSHPSHSAVVNWTSYASSIEALSSGNKEFKGTVFFDEFTFVKLTGVAGNYTVCQKDLCCHLSYKMSENIPNEVYALGAFDGLHTVEGRYYLQICTLLKCKTTNLNTCGDSAETASTRFEMFSLSGTFGTQYVFPEVLLSENQLAPGEFQVSTDGRLFSLKPTSGPVLTVTLFGRLYEKDWASNASSGLT | 1.71
6 | ADP320 (protein, bait human Fc-tagged dimer) MAAAPGLLVWLLVLRLPWRVPGQLDPSTGRRFSEHKLCADDECSMLMYRGEALEDFTGPDCRFVNFKKGDPVYVYYKLARGWPEVWAGSVGRTFGYFPKDLIQVVHEYTKEELQVPTDETDFVCFDGGRDDFHNYNVEELLGFLELYNSAATDSEKAVEKTLQDMEKNPELSKEREPEPEPVEANSEESDSVFSENTEDLQEQFTTQKHHSHANSQANHAQGEQASFESFEEMLQDKLKVPESENNKTSNSSQVSNEQDKIDAYKLLKKEMTLDLKTKFGSTADALVSDDETTRLVTSLEDDFDEELDTEYYAVGKEDEENQEDFDELPLLTFTDGEDMKTPAKSGVEKYPTDKEQNSNEEDKVQLTVPPGIKNDDKNILTTWGDTIFSIVTGGEETRDTMDLESSSSEEEKEDDDDALVPDSKQGKPQSATDYSDPDNVDDGLFIVDIPKTNNDKEVNAEHHIKGKGRGVQESKRGLVQDKTELEDENQEGMTVHSSVHSNNLNSMPAAEKGKDTLKSAYDDTENDLKGAAIHISKGMLHEEKPGEQILEGGSESESAQKAAGNQMNDRKIQQESLGSAPLMGDDHPNASRDSVEGDALVNGAKLHTLSVEHQREELKEELVLKTQNQPRFSSPDEIDLPRELEDEVPILGRNLPWQQERDVAATASKQMSEKIRLSEGEAKEDSLDEEFFHHKAMQGTEVGQTDQTDSTGGPAFLSKVEEDDYPSEELLEDENAINAKRSKEKNPGNQGRQFDVNLQVPDRAVLGTIHPDPEIEESKQETSMILDSEKTSETAAKGVNTGGREPNTMVEKERPLADKKAQRPFERSDFSDSIKIQTPELGEVFQNKDSDYLKNDNPEEHLKTSGLAGEPEGELSKEDHENTEKYMGTESQGSAAAEPEDDSFHWTPHTSVEPGHSDKREDLLIISSFFKEQQSLQRFQKYFNVHELEALLQEMSSKLKSAQQESLPYNMEKVLDKVFRASESQILSIAEKMLDTRVAENRDLGMNENNIFEEAAVLDDIQDLIYFVRYKHSTAEETATLVMAPPLEEGLGGAMEEMQPLHEDNFSREKTAELNVQVPEEPTHLDQRVIGDTHASEVSQKPNTEKDLDPGPVTTEDTPMDAIDANKQPETAAEEPASVTPLENAILLIYSFMFYLTKSLVATLPD | 1.04
7 | ADP267 (protein, bait human Fc-tagged dimer) CKYKKSSGQLWSWMVCLAGLCAVCLLILSPFWGLILFSVSCFLMYTYLSGQELLPVDQKAVLVTGGDCGLGHALCKYLDELGFTVFAGVLNENGPGAEELRRTCSPRLSVLQMDITKPVQIKDAYSKVAAMLQDRGLWAVINNAGVLGFPTDGELLLMTDYKQCMAVNFFGTVEVTKTFLPLLRKSKGRLVNVSSMGGGAPMERLASYGSSKAAVTMFSSVMRLELSKWGIKVASIQPGGFLTNIAGTSDKWEKLEKDILDHLPAEVQEDYGQDYILAQRNFLLLINSLASKDFSPVLRDIQHAILAKSPFAYYTPGKGAYLWICLAHYLPIGIYDYFAKRHFGQDKPMPRALRMPNYKKKAT | 0.806
8 | ADP276 (protein, bait human Fc-tagged dimer) DRGHLDYPRNPRREGSFPQGQLSMLQEKIDHLERLLAENNEIISNIRDSVINLSESVEDGPKSSQSNFSQGAGSHLLPSQLSLSVDTADCLFASQSGSHNSDVQMLDVYSLISFDNPDGGVWKQGFDITYESNEWDTEPLQVFVVPHSHNDPGWLKTFNDYFRDKTQYIFNNMVLKLKEDSRRKFIWSEISYLSKWWDIIDIQKKDAVKSLIENGQLEIVTGGWVMPDEATPHYFALIDQLIEGHQWLENNIGVKPRSGWAIDPFGHSPTMAYLLNRAGLSHMLIQRVHYAVKKHFALHKTLEFFWRQNWDLGSVTDILCHMMPFYSYDIPHTCGPDPKICCQFDFKRLPGGRFGCPWGVPPETIHPGNVQSRARMLLDQYRKKSKLFRTKVLLAPLGDDFRYCEYTEWDLQFKNYQQLFDYMNSQSKFKVKIQFGTLSDFFDALDKADETQRDKGQSMFPVLSGDFFTYADRDDHYWSGYFTSRPFYKRMDRIMESHLRAAEILYYFALRQAHKYKINKFLSSSLYTALTEARRNLGLFQHHDAITGTAKDWVVVDYGTRLFHSLMVLEKIIGNSAFLLILKDKLTYDSYSPDTFLEMDLKQKSQDSLPQKNIIRLSAEPRYLVVYNPLEQDRISLVSVYVSSPTVQVFSASGKPVEVQVSAVWDTANTISETAYEISFRAHIPPLGLKVYKILESASSNSHLADYVLYKNKVEDSGIFTIKNMINTEEGITLENSFVLLRFDQTGLMKQMMTKEDGKHHEVNVQFSWYGTTIKRDKSGAYLFLPDGNAKPYVYTTPPFVRVTHGRIYSEVTCFFDHVTHRVRLYHIQGIEGQSVEVSNIVDIRKVYNREIAMKISSDIKSQNRFYTDLNGYQIQPRMTLSKLPLQANVYPMTTMAYIQDAKHRLTLLSAQSLGVSSLNSGQIEVIMDRRLMQDDNRGLEQGIQDNKITANLFRILLEKRSAVNTEEEKKSVSYPSLLSHITSSLMNHPVIPMANKFSSPTLELQGEFSPLQSSLPCDIHLVNLRTIQSKVGNGHSNEAALILHRKGFDCRFSSKGTGLFCSTTQGKILVQKLLNKFIVESLTPSSLSLMHSPPGTQNISEINLSPMEISTFRIQLR | 0.79
9 | ADP284 (protein, bait human Fc-tagged dimer) SNAYSSPSVVLASYNHDGTRNILDDFREAYFWLRQNTDEHARVMSWWDYGYQIAGMANRTTLVDNNTWNNSHIALVGKAMSSNETAAYKIMRTLDVDYVLVIFGGVIGYSGDDINKFLWMVRIAEGEHPKDIRESDYFTPQGEFRVDKAGSPTLLNCLMYKMSYYRFGEMQLDFRTPPGFDRTRNAEIGNKDIKFKHLEEAFTSEHWLVRIYKVKAPDNRETLDHKPRVTNIFPKQKYLSKKTTKRKRGYIKNKLVFKKGKKISKKTV | 0.868
10 | ADP268 (protein, bait human Fc-tagged dimer) WEYGDLHLFGPNQRPAPCYDPCEAVLVESIPEGLDFPNASTGNPSTSQAWLGLLAGAHSSLDIASFYWTLTNNDTHTQEPSAQQGEEVLRQLQTLAPKGVNVRIAVSKPSGPQPQADLQALLQSGAQVRMVDMQKLTHGVLHTKFWVVDQTHFYLGSANMDWRSLTQVKELGVVMYNCSCLARDLTKIFEAYWFLGQAGSSIPSTWPRFYDTRYNQETPMEICLNGTPALAYLASAPPPLCPSGRTPDLKALLNVVDNARSFIYVAVMNYLPTLEFSHPHRFWPAIDDGLRRATYERGVKVRLLISCWGHSEPSMRAFLLSLAALRDNHTHSDIQVKLFVVPADEAQARIPYARVNHNKYMVTERATYIGTSNWSGNYFTETAGTSLLVTQNGRGGLRSQLEAIFLRDWDSPYSHDLDTSADSVGNACRLL | 0.585

— PMC11098746 (2024)
